Measured values taken from publication PMC3085348 (European journal of immunology, 2011).

Experiments:
[1] = molecular target: T1, RTL340 (DR2/MBP-85-99), biotinylated version (human, DRA*01:01/DRB1*15:01, biotin on the Bir-A tag); assay: ELISA
T1 chain 1: ENPVVHFFKNIVTPR
T1 chain 2: not shown
T1 chain 3: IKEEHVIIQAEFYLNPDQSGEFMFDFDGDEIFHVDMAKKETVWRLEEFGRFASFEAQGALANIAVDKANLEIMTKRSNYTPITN

[2] = molecular target: RTL342m (α1β1 domains of DR2 linked to mouse MOG-35-55 peptide) (human HLA-DR2 (DRA*01:01/DRB1*15:01) …, UniProt Q61885;IMGT); assay: ELISA

B1: Fab 2C3 (Fab, V domains shown)
VH: QVQLVQSGGGVVQPGRSLRLSCAASGFTFSSYAMHWVRQAPGKGLEWVAVISYDGSNKYYADSVKGRFTISRDNSKNTLYLQMNSLRAEDTAVYYCARDRSFWSGYYIINYYYYGMDVWGQGTTVTVSS
VL: DVVMTQSPLSLPVTPGEPASISCRSSQSLLHSDGNNYLDWYLQKPGQSPQLLIYLGSNRASGVPDRFSGSGSGTDFTLKISRVEPEDVGVYYCMQALHIPLTFGQGTRLEIK
Does B1 bind [1]?
Result: no binding

B2: Fab 1F11 (Fab, V domains shown)
VH: QLQLQESGPGLVKPSETLSLTCTVSGVSISSRSGHWGWVRQPPGKGLEWIGSISYSGSTYYNPSLKSRVTISVDTSKNQLSLKLSSVTAADTAVYYCARESHPAAALVGWGQGTLVTVSS
VL: ETTLTQSPGTLSLSPGERATLSCRASQSIINSHLAWYQQKPGQAPRLLIYGASSRATGIPDRFSGGGSGTDFTLTITRLETEDFALYFCQQYGTSPLTFGGGTRVETK
Which “fold reduction in ELISA binding to RTL342m compared to RTL1000” value (“fold reduction in ELISA binding” below) [2] does the source give for B2 here?
The value was 5 fold.

B3: Fab 2E4 (Fab, V domains shown)
VH: EVQLVESGAEVKKPGASVKVSCKASGYTFTSYYMHWVRQAPGQGLEWMGIINPSGGSTSYAQKFQGRVTMTRDTSTSTVYMELSSLRSEDTAVYYCAREGDNYYGDAFDIWGQGTMVTVSS
VL: EIVLTQSPATLSLSPGERATLSCRASQSVSSYLAWYQQKPGQAPRLLIYDASNRATGIPARFSGSGSGTDFTLTISSLEPEDFAVYYCQQRSNWPPSYTFGQGTKLEIK
With B3 as the binder, how does the “fold reduction in ELISA binding” value [2] read?
Its value is 2 fold.

B4: Fab 3A3 (Fab, V domains shown)
VH: QVQLQESGGGLVKPGGSLRLSCAASGFTFSSYSMNWVRQAPGKGLEWVSSISSSSSYIYYADSVKGRFTISRDNAKNSLYLQMNSLRAEDTAVYYCARVRGHRYYYDSSGYYSSDYYYYYGMDVWGQGTTVTVSS
VL: DIQLTQSPSSVSASVGDRVTITCRASQVISSWLAWYQQKPGKAPKLLISTASSLQSGVPPRFSGSGSGTDFTLTITSLQPEDFATYYCQQANSFPLTFGQGTKVEIK
With B4 as the binder, how does the “fold reduction in ELISA binding” value [2] read?
The value was 5 fold.
